Measured values taken from EP4763862A1 (Beijing Tide Pharmaceutical Co., Ltd., dated 2026).

T1: B7-H3 on NCI-H446 cells (UniProt Q5ZPR3 29-534)
T1 construct: whole, on cells
T1 sequence (looked up): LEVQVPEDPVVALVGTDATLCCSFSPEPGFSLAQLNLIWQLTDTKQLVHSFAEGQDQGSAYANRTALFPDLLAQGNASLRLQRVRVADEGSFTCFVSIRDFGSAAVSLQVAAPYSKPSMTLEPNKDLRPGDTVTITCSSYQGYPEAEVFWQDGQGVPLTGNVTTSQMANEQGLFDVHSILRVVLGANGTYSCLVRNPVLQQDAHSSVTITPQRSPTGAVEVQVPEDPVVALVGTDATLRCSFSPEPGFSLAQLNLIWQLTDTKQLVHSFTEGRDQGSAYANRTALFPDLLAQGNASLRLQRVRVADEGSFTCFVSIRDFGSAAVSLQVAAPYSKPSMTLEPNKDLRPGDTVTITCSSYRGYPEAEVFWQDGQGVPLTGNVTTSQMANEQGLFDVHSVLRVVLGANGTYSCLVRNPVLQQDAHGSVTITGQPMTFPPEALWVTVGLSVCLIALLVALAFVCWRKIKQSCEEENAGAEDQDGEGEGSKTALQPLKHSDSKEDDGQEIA

T2: mouse B7-H3 on CHO-mouse B7-H3 cells (mouse, UniProt Q8VE98 29-316)
T2 construct: whole, on cells; also called CHO-S-mouse-B7-H3; murine B7-H3
T2 sequence (looked up): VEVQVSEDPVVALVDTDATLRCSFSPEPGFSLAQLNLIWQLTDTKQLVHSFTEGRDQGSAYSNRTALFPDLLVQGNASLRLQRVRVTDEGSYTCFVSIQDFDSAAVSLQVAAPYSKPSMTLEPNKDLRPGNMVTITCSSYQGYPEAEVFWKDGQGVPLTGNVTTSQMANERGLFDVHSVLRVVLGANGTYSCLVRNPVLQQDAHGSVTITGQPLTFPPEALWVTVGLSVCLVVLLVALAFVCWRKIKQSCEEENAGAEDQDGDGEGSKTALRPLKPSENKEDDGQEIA


target: T1, B7-H3 on NCI-H446 cells; experiment: flow cytometry on NCI-H446 cells, goat anti-human Fc secondary

Row | Binder | EC50 [nM]
1 | cAb2-z0-p9 (antibody, human IgG1, kappa, V domains shown, Humanized from 28-B1-E8-C11; Human IgG1 / kappa) VH: EVKLVESGAVLVKPGASVKISCKASGYTLSDFNMDWVKQSQGKSLEWVGDINPNYDTITYNQKFRGKATLTVDRSSNTAYMELRSLTSEDSAVYYCARGELGRYFYVWGAGTTVTVSS VL: DIQLTQPPSSLSASVGDRVTITCRASENVYSYLAWYQQKPGRSPQLLVYNAKTLQEGVPSRFSGSGSGTQFTLTISSLQPEDVADYYCQHHYGTPWTFGGGTKVEIKR | 1.15
2 | cAb2-z2-p6 (antibody, human IgG1, kappa, V domains shown, Humanized from 28-B1-E8-C11; Human IgG1 / kappa) VH: QVQLVESGAVVKKPGASVKVSCKASGYTLSDFNMDWVRQAPGKSLEWMGDINPNYDTITYNQKFRGRVTLTVDRSINTAYMELSRLRSDDTAVYYCARGELGRYFYVWGAGTMVTVSS VL: DIQLTQPPSSLSASVGDRVTITCRASENVYSYLAWYQQKPGRSPQLLVYNAKTLQEGVPSRFSGSGSGTQFTLTISSLQPEDFADYYCQHHYGTPWTFGGGTKVEIKR | 1.36
3 | cAb2-z5-p6 (antibody, human IgG1, kappa, V domains shown, Humanized from 28-B1-E8-C11; Human IgG1 / kappa) VH: QVQLVESGAVVKKPGASVKVSCKASGYTLSDFNMDWVRQAPGKSLEWMGDINPNYDTITYNQKFRGRVTLTVDRSINTAYMELSRLRSDDTAVYYCARGELGRYFYVWGAGTMVTVSS VL: DIQLTQPPSSLSASVGDRVTITCRASENVYSYLAWYQQKPGRSPQLLVYNAKTLPEGVPSRFSGSGSGTQFTLTISSLQPEDFADYYCSHHYGTPWTFGGGTKVEIKR | 3.92

The next lines start with the values.

Row | EC50 [nM] | Binder
4 | 4.45 | 28-B1-E8-C11 (antibody, human IgG1, kappa, V domains shown, parent of the cAb2 humanized antibodies; also called CC11) VH: EVKLVESGAVLVKPGASVKISCKASGYTLSDFNMDWVKQSQGKSLEWVGDINPNYDTITYNQKFRGKATLTVDRSSNTAYMELRSLTSEDSAVYYCARGELGRYFYVWGAGTTVTVSS VL: DIQLTQPPASLSASVGETVTITCRASENVYSYLAWYRQKQGRSPQLLVYNAKTLPEGVPSRFSGSGSGTQFSLKINSLQTEDLGDYYCQHHYGTPWTFGGGTKLEIKR
5 | 2.22 | cAb2-z1-p9 (antibody, human IgG1, kappa, V domains shown, Humanized from 28-B1-E8-C11; Human IgG1 / kappa; also called cAb2-zl-p9) VH: EVKLVESGAVLVKPGASVKISCKASGYTLSDFNMDWVKQSQGKSLEWVGDINPNYDTITYNQKFRGKATLTVDRSSNTAYMELRSLTSEDSAVYYCARGELGRYFYVWGAGTTVTVSS VL: DIQLTQPPSSLSASVGDRVTITCRASENVYSYLAWYQQKPGRSPQLLVYNAKTLPEGVPSRFSGSGSGTQFTLTISSLQPEDFADYYCSHHYGTPWTFGGGTKVEIKR
6 | 0.552 | cAb2-z4-p6 (antibody, human IgG1, kappa, V domains shown, Humanized from 28-B1-E8-C11; Human IgG1 / kappa) VH: QVQLVESGAVVKKPGASVKVSCKASGYTLSDFNMDWVRQAPGKSLEWMGDINPNYDTITYNQKFRGRVTLTVDRSINTAYMELSRLRSDDTAVYYCARGELGRYFYVWGAGTMVTVSS VL: DIQLTQPPSSLSASVGDRVTITCRASENVYSYLAWYQQKPGRSPQLLVYNAKTLQEGVPSRFSGSGSGTQFTLTISSLQPEDVADYYCQHHYGTPWTFGGGTKVEIKR
7 | 1.06 | cAb2-z3-p6 (antibody, human IgG1, kappa, V domains shown, Humanized from 28-B1-E8-C11; Human IgG1 / kappa) VH: QVQLVESGAVVKKPGASVKVSCKASGYTLSDFNMDWVRQAPGKSLEWMGDINPNYDTITYNQKFRGRVTLTVDRSINTAYMELSRLRSDDTAVYYCARGELGRYFYVWGAGTMVTVSS VL: DIQLTQPPSFLSASVGDRVTITCRASENVYSYLAWYQQKPGRSPQLLVYNAKTLQEGVPSRFSGSGSGTEFTLTISSLQPEDFADYYCQHHYGTPWTFGGGTKVEIKR
8 | 3.45 | cAb1-uIgG1K (antibody, Parental chimeric antibody of the cAb1 series; also called cAb1-ulgG1K) heavy: not shown light: DVLMTQTPLSLPVSLGDQVSISCRASQSLANSYGKTYLSWYLHKPGQSPQLLIYGISNRFSGVPDRFSGSGSGTDFTLKISTIKPEDLGMYYCLHGTHQPLTFGAGTKLELKRTVAAPSVFIFPPSDEQLKSGTASVVCLLNNFYPREAKVQWKVDNALQSGNSQESVTEQDSKDSTYSLSSTLTLSKADYEKHKVYACEVTHQGLSSPVTKSFNRGEC

target: T3, B7-H3 Cyno-His (cynomolgus monkey); experiment: SPR, Biacore 8K, antibody captured by anti-human IgG Fc on CM5, B7-H3 Cyno-His as analyte, 1:1 model
T3 construct: also called cynomolgus monkey B7-H3

Row | Kd [nM] | koff [s⁻¹] | kon [M⁻¹ s⁻¹] | Binder
9 | 3.35 | 5.47e-05 | 16300 | cAb1-uIgG1K (antibody, Parental chimeric antibody of the cAb1 series; also called cAb1-ulgG1K) heavy: not shown light: DVLMTQTPLSLPVSLGDQVSISCRASQSLANSYGKTYLSWYLHKPGQSPQLLIYGISNRFSGVPDRFSGSGSGTDFTLKISTIKPEDLGMYYCLHGTHQPLTFGAGTKLELKRTVAAPSVFIFPPSDEQLKSGTASVVCLLNNFYPREAKVQWKVDNALQSGNSQESVTEQDSKDSTYSLSSTLTLSKADYEKHKVYACEVTHQGLSSPVTKSFNRGEC

target: T2, mouse B7-H3 on CHO-mouse B7-H3 cells; experiment: flow cytometry on CHO-mouse B7-H3 cells, antibody 10 µg/ml

Row | Binder | binding result
10 | 29-A9-G8-F6 (antibody, human IgG1, kappa, V domains shown) VH: EVQLQQSGPELVRPGVSVKISCKGSGYTFTDYSMHWVKQSHAKSLEWIGVINTSSGNTYYNLKFKGKATMTVDKSSSTAYMELARLTSEDSAIYYCSKYYGSSFHWYFDVWGAGTTVTVSS VL: DIVMTQSPVIMSASPGEKVTMTCSASSSVSYMHWYQQKSSTSPKLWIYDTSKLASGVPGRFSGTGSGKSHSLTISSMEAEDVATYYCFQGSGYPLTFGSGTKLEIKR | binds
11 | 16-D10-E1-E1 (antibody, human IgG1, kappa, V domains shown) VH: EVQLQQSGPELVRPGVSVKISCKGSGYTFTDYAMHWVKQSHAKSLEWIGVINTYSGNTYYSQKFKGKATMTVDKSSSTAYMELARLTSEDSAIYYCARGAGYFPYWYFDVWGAGTTVTVSS VL: DIQMIQSPSYLAASPGETITINCRASKSISKYLAWYQEKPGKTNKLLIYSGSTLQSGIPSRFSGSGSGTDFTLTISSLEPEDFAMYYCQQHYEYPYTFGGGTKLEIKR | binds
12 | 9-A2-G3-H11 (antibody, human IgG1, kappa, V domains shown) VH: EVQLQQSGPELVRPGESVKISCKGSGYTFTDYAIHWVKQSHAKSLEWIGVISTYYDNTYYNQKFKGRATMTVDKSSSTAYMELARLTSEDSAIYYCARGYGSSFNWYFDVWGAGTTVTVSS VL: DIVMTQSPSSLAVSAGEKVTMSCKSSQSLLNSRTRKNYLAWYQQKPGQSPKLLIYWASTRESGVPDRFTGSGSGTDFTLTITSVQAEDLAVYYCKQSYNLYTFGGGTKLEIKR | binds

Other lines, results leading:

Row | binding result | Binder
13 | binds | 19-F1-E9-B11 (antibody, human IgG1, kappa, V domains shown, also called CB11) VH: EVQLQQSGPSLVKPSQTLSLTCSVTGGSITSFYWNWIRKFPGNKLEYMGYISSSGSTYYNPSLKSRISITRDTSKNQSYLQLNSVTAEDTATYYCARGGVHYGFGDYWGQGTSVTVSS VL: DIVMTQSAPSVPVTPGESVSISCRSSKSLLHSNGNTYLYWFLQRPGQSPQLLIYRMSNLASGVPDRFSGSGSGTAFTLRISRVEAEDVGVYYCMQHLEYPLTFGAGTKLELKR
14 | binds | 28-B5-B6-C6 (antibody, human IgG1, kappa, V domains shown) VH: EVKLQESGPGLVKPSQSLSLTCTVTGYSITSDYAWNWIRQFPGNILEWMGYISYSGSASYNPSLQSRISVTRDTSKNQFFLQLNSVTTEDTATYYCVRSLGRRWYFGFWGAGTTVTVSS VL: not shown
15 | binds | 9-F1-D9-F10 (antibody, human IgG1, kappa, V domains shown) VH: EVQLVESGGGLVQPGGSLRVSCATSGFTFSDYYMSWVRQPPGKALEWLGFIRNKINGYTTEYSASVKGRFTISRDNSQSILYLQMNTLRAEDSATYYCTRDSSQRPFAYWGQGTLVTVSA VL: DIVMTQSPSSLSVSAGEKVTMTCKSSQSLLNSRSQKNFLAWYQQKPGQPPKLLIYGASTRESGVPDRFTGSGSGTDFTLTISNVQAEDLAVYYCQNDLTYPLTFGAGTKLELKR
16 | binds | 48-B4-F4-E4 (antibody, human IgG1, kappa, also called CE4) heavy: not shown light: DVLMTQTPLSLPVSLGDQVSISCRASQSLANSYGKTYLSWYLHKPGQSPQLLIYGISNRFSGVPDRFSGSGSGTDFTLKISTIKPEDLGMYYCLHGTHQPLTFGAGTKLELKRTVAAPSVFIFPPSDEQLKSGTASVVCLLNNFYPREAKVQWKVDNALQSGNSQESVTEQDSKDSTYSLSSTLTLSKADYEKHKVYACEVTHQGLSSPVTKSFNRGEC
